B1: GFRα-1 (receptor)
chain: DRLDCVKASDQCLKEQSCSTKYRTLRQCVAGKETNFSLASGLEAKDECRSAMEALKQKSLYNCRCKRGMKKEKNCLRIYWSMYQSLQGNDLLEDSPYEPVNSRLSDIFRVVPFISDVFQQVEHIPKGNNCLDAAKACNLDDICKKYRSAYITPCTTSVSNDVCNRRKCHKALRQFFDKVPAKHSYGMLFCSCRDIACTERRRQTIVPVCSYEEREKPNCLNLQDSCKTNYICRSRLADFFTNCQPESRSVSSCLKENYADCLLAYSGLIGTVMTPNYIDSSSLSVAPWCDCSNSGNDLEECLKFLNFFKDNTCLKNAIQAFGNGSDVTVWQPAFPVQTTTATTTTALRVKNKPLGPAGSENEIPTHVLPPCANLQAQKLKSNVSGNTHLCISNGNYEKEGLGASS
B2: LRP2 CR89 (receptor)
chain: not shown
notes: domain: CR89; also called YVWR; not shown: N-terminal hexahistidine and S-peptide of pET30(+)a
B3: MegaRAP1 d3 K251E (ligand, not shown: small tags and cut ends)
chain: LDRLRRVSHQGYTTEAKFEEPRVIDLWDLAQSANLTDKELEAFREELKYFEAKIEAHNHYQKQLEIAHEELRHAESVGDGERVSRSREKHALLEGRTKELGYTVKKHLQDLSGRISRAR
notes: Revertant of MegaRAP1 d3; also called MegaRAP1 K251E
B4: LRP2 CR89 Y1042W (receptor, not shown: small tags and cut ends)
chain: PTEQCGLFSFPCKNGRCVPNYWLCDGVDDCHDNSDEQLCGTLNNTCSSSAFTCGHGECIPAHWRCDKRNDCVDGSDEHNCPTHA
notes: also called WVWR
B5: MegaRAP1 d3 A256K (ligand, not shown: small tags and cut ends)
chain: B3 chain with E51K, A56K
notes: Revertant of MegaRAP1 d3; also called MegaRAP1 A256K
B6: RAP d3 K270E (ligand, not shown: small tags and cut ends)
chain: B3 chain with T13S, K17E, Y49H, A56K
notes: Forward mutant of RAP d3; also called RAP K270E
B7: RAP d3 E251K (ligand, not shown: small tags and cut ends)
chain: B3 chain with T13S, K17E, Y49H, E51K, A56K, E70K
notes: Forward mutant of RAP d3; also called RAP E251K
B8: LRP2 CR89 R1088D (receptor, not shown: small tags and cut ends)
chain: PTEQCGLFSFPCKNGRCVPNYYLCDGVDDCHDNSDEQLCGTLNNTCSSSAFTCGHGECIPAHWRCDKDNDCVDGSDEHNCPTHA
notes: also called YVWD
B9: LRP2 CR89 V1047D R1088D (receptor, not shown: small tags and cut ends)
chain: B4 chain with W22Y, V27D, R68D
notes: also called YDWD
B10: RAP d3 E217K (ligand, not shown: small tags and cut ends)
chain: B3 chain with T13S, Y49H, A56K, E70K
notes: Forward mutant of RAP d3; also called RAP E217K
B11: RAP d3 H249Y (ligand, not shown: small tags and cut ends)
chain: B3 chain with T13S, K17E, A56K, E70K
notes: Forward mutant of RAP d3; also called RAP H249Y
B12: MegaRAP1 d3 E270K (ligand, not shown: small tags and cut ends)
chain: B3 chain with E51K, E70K
notes: Revertant of MegaRAP1 d3; also called MegaRAP1 E270K
B13: RAP d3 E251K, K270E (ligand, not shown: small tags and cut ends)
chain: B3 chain with T13S, K17E, Y49H, E51K, A56K
notes: Forward mutant of RAP d3; also called RAP E251K, K270E
B14: LRP2 CR89 V1047D (receptor, not shown: small tags and cut ends)
chain: B4 chain with W22Y, V27D
notes: also called YDWR
B15: MegaRAP1 d3 A256K, E270K (ligand, not shown: small tags and cut ends)
chain: B3 chain with E51K, A56K, E70K
notes: Double revertant of MegaRAP1 d3; also called MegaRAP1 A256K, E270K
B16: RAP d3 K256A, K270E (ligand, not shown: small tags and cut ends)
chain: B3 chain with T13S, K17E, Y49H
notes: Forward mutant of RAP d3; also called RAP K256A, K270E

One test concerns the target T1, RAP-GDNF (UniProt P30533 35-353; P39905 78-211, limits assumed).
T1 construct: also called RAP-GDNF fusion
T1 sequence (looked up): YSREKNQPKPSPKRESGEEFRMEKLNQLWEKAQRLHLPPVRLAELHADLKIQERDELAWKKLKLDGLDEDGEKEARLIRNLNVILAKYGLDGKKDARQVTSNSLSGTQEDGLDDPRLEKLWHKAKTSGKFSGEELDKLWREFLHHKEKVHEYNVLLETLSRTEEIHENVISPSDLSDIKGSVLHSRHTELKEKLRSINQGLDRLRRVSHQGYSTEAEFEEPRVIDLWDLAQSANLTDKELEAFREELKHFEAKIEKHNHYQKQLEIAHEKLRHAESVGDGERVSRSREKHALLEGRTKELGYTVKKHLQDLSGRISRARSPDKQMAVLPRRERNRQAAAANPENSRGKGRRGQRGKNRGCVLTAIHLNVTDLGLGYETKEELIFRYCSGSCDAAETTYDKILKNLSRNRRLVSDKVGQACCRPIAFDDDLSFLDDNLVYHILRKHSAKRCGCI
The test is described as follows: solid-phase assay, RAP-GDNF coated, serial dilutions of GFRα-1 (FIG. 12).

Test [1] concerns the target T2, RAP d3 (human, UniProt P30533 235-353).
T2 construct: also called wild-type RAP d3
T2 sequence: B3 chain with T13S, K17E, Y49H, A56K, E70K
The test is described as follows: solid-phase binding assay, CR protein coated, anti-RAP detection. An excerpt:
(§1) Alternatively, the affinity differences between MegaRAP I d3 and MegaRAP1 d3 E270K may have been insufficient to alloW the latter to predominate upon iterative panning. A double revertant, T213S, E270K, had binding behavior that was not distinguishable from MegaRAP1 d3 in our assays. […] The binding behavior of the K251E, E270K double revertant implies a strong dependence of the affinity of MegaRAP1 d3 for LRP2 CR89 on the E251K mutation. […] Therefore, the K256A mutation in MegaRAP1 d3 is a crucial determinant of the ability of this variant to discriminate between the two receptor fragments, exerting its effect by negatively impacting affinity for LRP1 CR3-5 while at the same time improving affinity for LRP2 CR89.

For test [2], the target named is B2. The description is as above. The protocol: (§2) Wells were washed with TBSTC and bound ligands detected with polyclonal anti-RAP (BP41/42, 1:1,000, BioMarin). Excess primary antibody was removed and wells washed before incubation with the secondary antibody, HRP-conjugated goat anti rabbit IgG (Bio-Rad). After washing, TMB substrate solutions (Bio-Rad) were added to detect HRP. Color development was stopped with 1N HCl. Absorption at 450 nm was measured with a microplate spectrophotometer (Molecular Devices). Data were plotted and Kd values derived by non-linear regression with the assumption of single-site binding (GraphPad Prism).
(§3) Next, the binding of RAP d3 and MegaRAP1 d3 proteins to LRP1 CR3-5 and LRP2 CR89 was assessed. […] In all cases, 10 mM EGTA prevented binding of both RAP d3 and MegaRAP1 d3 to CR proteins. Since calcium was the only divalent metal ion present in the binding buffer, this observation is consistent with both RAP d3 and MegaRAP1 d3 binding to calcium-loaded CR pairs. […] Therefore, wild-type RAP d3 and MegaRAP1 d3 have inverted binding preferences for these two receptor fragments.
Target sequence in this assay (P98164 1025-1102): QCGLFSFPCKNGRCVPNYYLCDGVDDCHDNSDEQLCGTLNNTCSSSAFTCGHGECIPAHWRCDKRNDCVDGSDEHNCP

The target of test [3] is T2, RAP d3. Described as above. The protocol:
Solid phase binding assays—Purified, refolded CR protein (1 μg) was bound to Nunc Maxisorp™ 96-well plates in TBS pH 8 supplemented with 5 mM CaCl₂ (TBSC) overnight at 4° C. Wells were washed with TBSC and then blocked with TBSC containing 2% bovine serum albumin (BSA). RAP ligands were then incubated with the immobilized receptor at a range of concentrations for 2 hours in the above blocking buffer supplemented with 0.05% Tween-20 at room temperature. Control wells contained no added ligand. As an additional control, to determine whether the absence of calcium affected binding, 10 mM EGTA was included in the incubation medium for some samples. Wells were washed with TBSTC and bound ligands detected with polyclonal anti-RAP (BP41/42, 1:1,000, BioMarin). Excess primary antibody was removed and wells washed before incubation with the secondary antibody, HRP-conjugated goat anti rabbit IgG (Bio-Rad). After washing, TMB substrate solutions (Bio-Rad) were added to detect HRP. Color development was stopped with 1N HCl. Absorption at 450 nm was measured with a microplate spectrophotometer (Molecular Devices). Data were plotted and Kd values derived by non-linear regression with the assumption of single-site binding (GraphPad Prism).
One premise of this work was that amino acids at A, C, A′ and C′ within the calcium-binding loops of a CR pair were key determinants of binding affinity for RAP and would be similarly important for binding of RAP variants. To test this idea, mutant LRP2 CR89 were prepared in which the native, non-canonical residues at these positions were sequentially substituted with the non-native, canonical residues. As defined above, the A, C, A′, C′ string for LRP2 CR89 is YVWR. Mutants included LRP2 CR89 Y1042W (WVWR), LRP2 CR89 V1047D (YDWR), LRP2 CR89 R1088D (YVWD), LRP2 CR89 V1047D R1088D (YDWD), LRP2 CR89 Y1042W V1047D R1088D (WDWD), LRP2 CR89 Y1042W V1047D (WDWR), LRP2 CR89 Y1042W R1088D (WVWD). Binding to both RAP d3 and MegaRAP1 d3 were measured for each LRP2 CR89 mutant by solid-phase assay.
This is another data set of the same source.

For a further test, the target named is T3, LRP1 CR3-5 (human, UniProt Q07954 852-973).
T3 construct: range 852-973; not shown: N-terminal hexahistidine and S-peptide of pET30(+)a
The test is described as above. As for the experimental part: as §2, §3

Test [4] has as its target B2. The description is as above.
From the text: as §1
Target sequence in this assay (P98164 1025-1102): as above
The source holds these as a separate data set.

Changes are numbered by the printed parent chain. In names and notes the source's numbering stands.

T3 sequence (Q07954 852-973, form in doubt): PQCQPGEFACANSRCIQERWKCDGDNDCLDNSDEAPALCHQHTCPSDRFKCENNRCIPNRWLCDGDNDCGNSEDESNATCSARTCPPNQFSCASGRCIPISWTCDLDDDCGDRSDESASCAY

By Kd is commonly meant the equilibrium constant for the complex coming apart. A low value points to higher affinity. B1: the Kd with RAP-GDNF is around 5 ng/mL.

In the test with RAP d3 [1], B2 registered a Kd above 300 nM.

Consider B3, for which, in the test with LRP2 CR89 [2], the binding result was “no binding”.

On to B4, for which, in the test with RAP d3 [3], the binding result is recorded as “no binding”.

As for B5, the binding result with LRP2 CR89 [2] was “no binding”.

As for B6, the binding result in the test with LRP2 CR89 [2] is given as “no binding”. Still for that read-out and setting: the value for B7 was “no binding”.

With B8, the binding result in the test with RAP d3 [3] was “no binding”.

For B9, in the test with RAP d3 [3], the binding result is “no binding”. Regarding B10, the binding result with LRP2 CR89 [2] is given as “no binding”. For the molecule B11, the binding result with LRP2 CR89 [2] was “no binding”. As to B12, the “% max” value with LRP1 CR3-5 came out at 85%.

As to B13, the binding result with LRP2 CR89 [2] is “no binding”.

Regarding B14, the binding result in the test with RAP d3 [3] is reported as “no binding”. For the molecule B15, the “fold loss of affinity” value in the test with LRP2 CR89 [4] was 2 fold. As to B16, the binding result in the test with LRP2 CR89 [2] is recorded as “no binding”.
